Patent US7132258B1, “Nucleic acid encoding vitamin D receptor related polypeptide” (University of Massachusetts, priority 1998, dated 2006)

Experiments:
[1] = biological target: T1, RXR (full-length hRXRα) (Homo sapiens, UniProt P19793); test: Yeast two-hybrid interaction with RXR; format: binding; settings: β-galactosidase ONPG assay, 1 μM ligand or vehicle
T1 construct: RXR (full-length hRXRα); expressed in transfected cells; host or cells: Saccharomyces cerevisiae Y190
T1 sequence (P19793 1-462): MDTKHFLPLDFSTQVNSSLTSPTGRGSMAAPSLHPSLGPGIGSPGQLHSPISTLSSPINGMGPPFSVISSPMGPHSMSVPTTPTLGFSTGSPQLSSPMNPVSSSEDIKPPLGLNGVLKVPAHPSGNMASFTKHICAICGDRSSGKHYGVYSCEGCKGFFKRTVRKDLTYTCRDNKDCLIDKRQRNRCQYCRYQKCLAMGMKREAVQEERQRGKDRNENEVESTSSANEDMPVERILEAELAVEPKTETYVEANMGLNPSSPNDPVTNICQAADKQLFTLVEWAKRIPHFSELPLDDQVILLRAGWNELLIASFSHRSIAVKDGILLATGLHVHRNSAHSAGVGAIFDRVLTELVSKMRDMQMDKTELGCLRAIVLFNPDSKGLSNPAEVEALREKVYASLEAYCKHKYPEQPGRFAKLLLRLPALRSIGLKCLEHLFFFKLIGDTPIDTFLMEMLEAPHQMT
T1 sequence (Q9Y6Q9 401-1204 E704Q partner limits assumed): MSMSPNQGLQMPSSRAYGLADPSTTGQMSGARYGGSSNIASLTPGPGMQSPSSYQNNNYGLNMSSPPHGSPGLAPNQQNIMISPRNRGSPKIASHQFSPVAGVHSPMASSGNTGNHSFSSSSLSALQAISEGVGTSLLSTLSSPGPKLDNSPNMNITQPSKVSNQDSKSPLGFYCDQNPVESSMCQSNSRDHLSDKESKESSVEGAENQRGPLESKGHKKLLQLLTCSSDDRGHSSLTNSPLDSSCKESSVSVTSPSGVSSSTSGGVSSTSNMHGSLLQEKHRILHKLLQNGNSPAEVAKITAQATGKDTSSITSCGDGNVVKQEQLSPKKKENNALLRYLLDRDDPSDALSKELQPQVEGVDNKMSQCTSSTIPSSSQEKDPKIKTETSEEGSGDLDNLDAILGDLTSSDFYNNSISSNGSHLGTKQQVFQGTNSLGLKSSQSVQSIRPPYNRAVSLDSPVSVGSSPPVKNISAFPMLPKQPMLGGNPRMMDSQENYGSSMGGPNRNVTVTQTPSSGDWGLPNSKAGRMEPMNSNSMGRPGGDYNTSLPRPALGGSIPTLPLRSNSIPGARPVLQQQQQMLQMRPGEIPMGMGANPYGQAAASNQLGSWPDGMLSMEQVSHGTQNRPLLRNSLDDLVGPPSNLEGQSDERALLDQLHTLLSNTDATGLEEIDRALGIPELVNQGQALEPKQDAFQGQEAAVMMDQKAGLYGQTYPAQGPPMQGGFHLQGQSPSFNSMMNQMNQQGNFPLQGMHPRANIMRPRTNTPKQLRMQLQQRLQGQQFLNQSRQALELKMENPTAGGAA
Experimental: The protein—protein interactions between RAC3 and several steroid/nuclear receptors were analyzed by the yeast two-hybrid system. The original two-hybrid clone, RAC3.1 in pGAD10 vector, was retransformed together with yeast expression vectors for Gal4 DBD fusion of selected hormone receptor genes into Y190 cells. The receptors used include RAR (full-length hRARα), RXR (full-length hRXRα), VDR (LBD of human Vitamin D receptor), PPAR (LBD of mPPARα), TR (LBD) of hTRβ), COUP (LBD of COUP-TFI). Three independent colonies from each transformation were selected and analyzed for expression of […] activities by liquid ONPG assay (FIG. 6) after treatment with 1 μM of corresponding ligands (closed bars), or with equal concentration of vehicle alone (open bars). […] The ligands used in these experiments were atRA, VitD3 (1,25-dihydroxyvitamin D3), and Wy (Wy 14,642). […] In the absence of ligand, RAC3 can interact with RAR and PPAR.

[2] = biological target: T2, Gal4 DBD fusion of the LBD of hRARα (Homo sapiens, UniProt P10276); test: Coactivation of Gal-RAR on Gal4-tk-Luc reporter in A549 cells; format: cell-based; settings: overexpression of RAC3, 100 nM atRA, 24 hours
T2 construct: Gal4 DBD fusion of the LBD of hRARα (Gal-RAR); expressed in transfected cells; host or cells: A549 human lung carcinoma cells
T2 sequence (P10276 183-417 limits assumed): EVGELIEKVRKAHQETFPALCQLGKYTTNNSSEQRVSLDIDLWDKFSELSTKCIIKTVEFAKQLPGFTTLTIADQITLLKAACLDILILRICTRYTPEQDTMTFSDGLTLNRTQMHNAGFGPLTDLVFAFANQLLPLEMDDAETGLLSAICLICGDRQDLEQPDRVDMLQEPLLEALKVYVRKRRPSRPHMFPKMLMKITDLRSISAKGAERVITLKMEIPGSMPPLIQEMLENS
T2 sequence (Q9Y6Q9 with tags, fused parts or gaps isoform Q9Y6Q9-5 D131E/G132A/T187P/E704Q/DEL1268-1272 partner): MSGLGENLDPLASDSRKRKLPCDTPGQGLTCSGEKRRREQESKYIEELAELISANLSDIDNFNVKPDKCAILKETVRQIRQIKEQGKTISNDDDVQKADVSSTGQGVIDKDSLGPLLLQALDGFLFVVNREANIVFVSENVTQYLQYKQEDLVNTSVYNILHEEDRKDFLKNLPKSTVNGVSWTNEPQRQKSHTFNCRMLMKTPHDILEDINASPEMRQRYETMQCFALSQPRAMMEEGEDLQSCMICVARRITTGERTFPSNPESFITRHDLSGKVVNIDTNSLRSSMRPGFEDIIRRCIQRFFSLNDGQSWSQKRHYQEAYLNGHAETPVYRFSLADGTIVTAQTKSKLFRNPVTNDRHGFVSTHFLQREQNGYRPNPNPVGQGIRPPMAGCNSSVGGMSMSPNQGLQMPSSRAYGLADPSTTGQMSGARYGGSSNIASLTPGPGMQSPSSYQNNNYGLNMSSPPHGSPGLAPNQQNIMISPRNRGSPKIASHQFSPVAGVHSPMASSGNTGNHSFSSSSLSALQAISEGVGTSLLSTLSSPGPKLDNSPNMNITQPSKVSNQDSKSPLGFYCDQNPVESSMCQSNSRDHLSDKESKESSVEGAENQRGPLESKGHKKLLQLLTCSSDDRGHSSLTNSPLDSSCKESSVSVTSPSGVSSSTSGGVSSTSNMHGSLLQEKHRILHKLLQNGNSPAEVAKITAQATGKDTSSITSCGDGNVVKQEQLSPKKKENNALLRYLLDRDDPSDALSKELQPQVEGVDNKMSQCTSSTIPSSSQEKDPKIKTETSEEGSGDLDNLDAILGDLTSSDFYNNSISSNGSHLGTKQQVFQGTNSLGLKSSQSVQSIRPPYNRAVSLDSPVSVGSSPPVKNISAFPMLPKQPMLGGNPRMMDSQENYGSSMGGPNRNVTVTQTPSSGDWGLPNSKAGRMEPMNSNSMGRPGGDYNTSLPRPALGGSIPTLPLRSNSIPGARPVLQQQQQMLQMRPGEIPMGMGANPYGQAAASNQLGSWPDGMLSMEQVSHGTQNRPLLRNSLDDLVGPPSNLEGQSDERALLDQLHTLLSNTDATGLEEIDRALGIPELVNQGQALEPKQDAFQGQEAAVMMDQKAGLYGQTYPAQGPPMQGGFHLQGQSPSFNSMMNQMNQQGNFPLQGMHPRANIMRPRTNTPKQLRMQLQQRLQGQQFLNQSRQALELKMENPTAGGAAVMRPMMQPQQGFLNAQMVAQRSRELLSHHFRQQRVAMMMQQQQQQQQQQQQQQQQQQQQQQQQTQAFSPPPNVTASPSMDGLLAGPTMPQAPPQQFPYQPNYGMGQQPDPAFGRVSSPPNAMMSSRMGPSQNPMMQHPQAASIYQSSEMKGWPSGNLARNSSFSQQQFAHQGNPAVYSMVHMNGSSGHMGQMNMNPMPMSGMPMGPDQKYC
Experimental: Monkey kidney-derived CV-1 cells and human lung carcinoma A549 cells were grown in phenol-free DMEM medium supplemented with 10% charcoal-stripped fetal bovine serum (Gibco). One day before transfection, cells were seeded in 12-well plates at a density of 50,000 cells per well. A mixture of DNAs was prepared that contained 0.5 μg of expression vector, 0.5 μg of pCMX-βGal used as internal control for transfection efficiency, 1 μg of luciferase reporter, and 1.5 μg of carrier DNA (PGEM) in a final volume of 30 μl. The DNA solution was mixed dropwise with one volume of 0.5 M CaCl2 and two volumes of 2×BBS (50 mM N,N-bis(2-hydroxyethyl)-2-aminoethanesulfonic acid (BES; Calbiochem), 280 mM NaCl, 1.5 mM Na2HPO4, pH 6.95). DNA precipitates were allowed to form at room temperature for 10 minutes and applied evenly to the cell cultures. Cells were allowed to transfect for 12 hours, then the precipitates were removed by washing transfected cells twice with phosphate buffered saline (PBS). […]
Luciferase and β-galactosidase assays were used to analyze the cultures. […] The luciferase activities were determined with MLX microtiter plate luminometer (Dynex) using 100 μl of assay solution (0.1 M KPO4, 5 mM ATP, 10 mM MgCl2) and 100 μl of luciferin solution (0.01 M D-luciferin in 0.1 M KPO4, pH 7.8). […]

interaction with RXR [1]: ligand-dependent manner
enhancement of ligand-dependent transcriptional activation by Gal4 DBD fusion of RAR [2]: about two-fold
Substance: RAC3: transcriptional coactivator of steroid/nuclear receptors, protein of about 1417 amino acids (SEQ ID NO:2); RAC3.1 is the two-hybrid clone, amino acids 401–1204
